Laboratory results: US11827699 (dated 2023)
Where two headings read alike, the source gives them in different places. Values belong to the binder of their own block, whether it stands above or below them.

Columns and labels:
Experiment in all cases: SPR
mouse FcγRI = molecular target: T1, mouse FcγRI (mouse, UniProt P26151)
T1 chain: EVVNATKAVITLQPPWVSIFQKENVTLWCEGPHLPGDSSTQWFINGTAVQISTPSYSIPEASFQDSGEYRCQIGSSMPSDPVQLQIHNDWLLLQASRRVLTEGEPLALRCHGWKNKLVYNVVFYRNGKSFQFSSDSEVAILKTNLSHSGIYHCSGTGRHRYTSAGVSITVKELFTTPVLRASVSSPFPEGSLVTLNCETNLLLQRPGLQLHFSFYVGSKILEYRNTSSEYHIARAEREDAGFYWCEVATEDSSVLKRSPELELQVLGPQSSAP

mouse FcγRIV = molecular target: T2, mouse FcγRIV (mouse, UniProt A0A0B4J1G0)
T2 chain: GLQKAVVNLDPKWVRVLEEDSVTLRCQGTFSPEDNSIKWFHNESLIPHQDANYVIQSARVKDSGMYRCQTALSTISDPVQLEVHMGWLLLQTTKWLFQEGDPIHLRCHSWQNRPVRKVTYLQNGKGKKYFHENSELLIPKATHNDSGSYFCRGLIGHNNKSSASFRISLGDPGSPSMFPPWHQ

human FcγRIa [1] = molecular target: T3, human FcγRIa (human, UniProt P12314)
T3 chain: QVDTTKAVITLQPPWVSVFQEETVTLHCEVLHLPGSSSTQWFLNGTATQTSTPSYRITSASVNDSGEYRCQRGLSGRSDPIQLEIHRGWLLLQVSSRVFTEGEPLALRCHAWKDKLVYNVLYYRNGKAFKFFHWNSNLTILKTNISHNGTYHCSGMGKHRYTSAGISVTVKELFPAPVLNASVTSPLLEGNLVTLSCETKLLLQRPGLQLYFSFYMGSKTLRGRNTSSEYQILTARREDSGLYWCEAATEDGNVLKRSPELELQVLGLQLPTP

human FcγRIa [2] = molecular target: T3, human FcγRIa
human FcγRIIb [3] = molecular target: T4, human FcγRIIb (human, UniProt P31994)
T4 chain: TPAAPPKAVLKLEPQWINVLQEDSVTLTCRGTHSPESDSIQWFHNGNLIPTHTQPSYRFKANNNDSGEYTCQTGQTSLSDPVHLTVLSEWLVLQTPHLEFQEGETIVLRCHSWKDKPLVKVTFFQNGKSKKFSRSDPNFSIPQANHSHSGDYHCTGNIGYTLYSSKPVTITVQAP

human FcγRIIb [4] = molecular target: T4, human FcγRIIb

binding result (mouse FcγRI): no binding
binding result (mouse FcγRIV): no binding
B1: VH3/L(WT)-mIgG1 (antibody)
chain 1: QVQLQESGPGLVKPSETLSLTCAVSGHSISHDHAWSWVRQPPGEGLEWIGFISYSGITNYNPSLQGRVTISRDNSKNTLYLQMNSLRAEDTAVYYCARSLARTTAMDYWGEGTLVTVSSAKTTPPSVYPLAPGSAAQTNSMVTLGCLVKGYFPEPVTVTWNSGSLSSGVHTFPAVLQSDLYTLSSSVTVPSSTWPSETVTCNVAHPASSTKVDKKIVPRDCGCKPCICTVPEVSSVFIFPPKPKDVLTITLTPKVTCVVVDISKDDPEVQFSWFVDDVEVHTAQTQPREEQFNSTFRSVSELPIMHQDWLNGKEFKCRVNSAAFPAPIEKTISKTKGRPKAPQVYTIPPPKEQMAKDKVSLTCMITDFFPEDITVEWQWNGQPAENYKNTQPIMDTDGSYFVYSKLNVQKSNWEAGNTFTCSVLHEGLHNHHTEKSLSHSPGK
chain 2: not shown

binding result (mouse FcγRI): no binding
binding result (mouse FcγRIV): no binding
B2: VH3/L(WT)-mIgG1-mF44 (antibody)
chain 1: QVQLQESGPGLVKPSETLSLTCAVSGHSISHDHAWSWVRQPPGEGLEWIGFISYSGITNYNPSLQGRVTISRDNSKNTLYLQMNSLRAEDTAVYYCARSLARTTAMDYWGEGTLVTVSSAKTTPPSVYPLAPGSAAQTNSMVTLGCLVKGYFPEPVTVTWNSGSLSSGVHTFPAVLQSDLYTLSSSVTVPSSTWPSETVTCNVAHPASSTKVDKKIVPRDCGCKPCICTVPEVSSVFIFPPKPKDVLTITLTPKVTCVVVDISKDDPEVQFSWFVDDVEVHTAQTQPREEQFNSTFRSVSELPIMHQDWLNGKEFKCRVNSADFPAPIEKTISKTKGRPKAPQVYTIPPPKEQMAKDKVSLTCMITDFFPEDITVEWQWNGQPAENYKNTQPIMDTDGSYFVYSKLNVQKSNWEAGNTFTCSVLHEGLHNHHTEKSLSHSPGK
chain 2: not shown

binding result (mouse FcγRI): no binding
binding result (mouse FcγRIV): no binding
B3: VH3/L(WT)-mIgG1-mF46 (antibody)
chain 1: QVQLQESGPGLVKPSETLSLTCAVSGHSISHDHAWSWVRQPPGEGLEWIGFISYSGITNYNPSLQGRVTISRDNSKNTLYLQMNSLRAEDTAVYYCARSLARTTAMDYWGEGTLVTVSSAKTTPPSVYPLAPGSAAQTNSMVTLGCLVKGYFPEPVTVTWNSGSLSSGVHTFPAVLQSDLYTLSSSVTVPSSTWPSETVTCNVAHPASSTKVDKKIVPRDCGCKPCICTVPEVSDVFIFPPKPKDVLTITLTPKVTCVVVDISKDDPEVQFSWFVDDVEVHTAQTQPREEQFNSTFRSVSELPIMHQDWLNGKEFKCRVNSADFPAPIEKTISKTKGRPKAPQVYTIPPPKEQMAKDKVSLTCMITDFFPEDITVEWQWNGQPAENYKNTQPIMDTDGSYFVYSKLNVQKSNWEAGNTFTCSVLHEGLHNHHTEKSLSHSPGK
chain 2: not shown

Kd (human FcγRIa [1]): 4 nM
B4: IL6R-BP267 (antibody)
chain 1: QVQLQESGPGLVKPSETLSLTCAVSGHSISHDHAWSWVRQPPGEGLEWIGFISYSGITNYNPSLQGRVTISRDNSKNTLYLQMNSLRAEDTAVYYCARSLARTTAMDYWGEGTLVTVSSASTKGPSVFPLAPSSKSTSGGTAALGCLVKDYFPEPVTVSWNSGALTSGVHTFPAVLQSSGLYSLSSVVTVPSSSLGTQTYICNVNHKPSNTKVDKKVEPKSCDKTHTCPPCPAPDLLGDDSVFLFPPKPKDTLMISRTPEVTCVVVDVSEEDGEVKFNWYVDGVEVHNAKTKPREEQYNSTYRVVSVLTVLHQDWLNGKEYKCKVSNKALPAPIEKTISKAKGQPREPQVYTLPPSRDELTKNQVSLTCLVKGFYPSDIAVEWESNGQPENNYKTTPPVLDSDGSFFLYSKLTVDKSRWQQGNVFSCSVMHEALHNHYTQESLSLSP
chain 2: not shown

Kd (human FcγRIa [2]): 0.9 nM
B5: IL6R-BP447 (antibody)
chain 1: QVQLQESGPGLVKPSETLSLTCAVSGHSISHDHAWSWVRQPPGEGLEWIGFISYSGITNYNPSLQGRVTISRDNSKNTLYLQMNSLRAEDTAVYYCARSLARTTAMDYWGEGTLVTVSSASTKGPSVFPLAPSSKSTSGGTAALGCLVKDYFPEPVTVSWNSGALTSGVHTFPAVLQSSGLYSLSSVVTVPSSSLGTQTYICNVNHKPSNTKVDKKVEPKSCDKTHTCPPCPAPDLLGDDSVFLFPPKPKDTLMISRTPEVTCVVVDVAEEDGEVKFNWYVDGVEVHNAKTKPREEQYNSTYRVVSVLTVLHQDWLNGKEYKCKVSNKALPRPIEKTISKAKGQPREPQVYTLPPSRDELTKNQVSLTCLVKGFYPSDIAVEWESNGQPENNYKTTPAVLDSDGSFFLYSKLTVDKSRWQQGNVFSCSVMHEALHNHYTQESLSLSP
chain 2: not shown

Kd (human FcγRIIb [3]): 4 nM
B6: IL6R-BP464 (antibody)
chain 1: QVQLQESGPGLVKPSETLSLTCAVSGHSISHDHAWSWVRQPPGEGLEWIGFISYSGITNYNPSLQGRVTISRDNSKNTLYLQMNSLRAEDTAVYYCARSLARTTAMDYWGEGTLVTVSSASTKGPSVFPLAPSSKSTSGGTAALGCLVKDYFPEPVTVSWNSGALTSGVHTFPAVLQSSGLYSLSSVVTVPSSSLGTQTYICNVNHKPSNTKVDKKVEPKSCDKTHTCPPCPAPDLLGDDSVFLFPPKPKDTLMISRTPEVTCVVVDVAEEDGEVKFNWYVDGVEVHNAKTKPREEQYNSTYRVVSVLTVLHQDWLNGKEYKCKVSNKALPRPIEKTISKAKGQPREPQVYTLPPSRDELTKNQVSLTCLVKGFYPSDIAVEWESNGQPENNYKTTPYVLDSDGSFFLYSKLTVDKSRWQQGNVFSCSVMHEALHNHYTQESLSLSP
chain 2: not shown

Kd (human FcγRIIb [3]): 4 nM
B7: IL6R-BP455 (antibody)
chain 1: QVQLQESGPGLVKPSETLSLTCAVSGHSISHDHAWSWVRQPPGEGLEWIGFISYSGITNYNPSLQGRVTISRDNSKNTLYLQMNSLRAEDTAVYYCARSLARTTAMDYWGEGTLVTVSSASTKGPSVFPLAPSSKSTSGGTAALGCLVKDYFPEPVTVSWNSGALTSGVHTFPAVLQSSGLYSLSSVVTVPSSSLGTQTYICNVNHKPSNTKVDKKVEPKSCDKTHTCPPCPAPDLLGDDSVFLFPPKPKDTLMISRTPEVTCVVVDVAEEDGEVKFNWYVDGVEVHNAKTKPREEQYNSTYRVVSVLTVLHQDWLNGKEYKCKVSNKALPRPIEKTISKAKGQPREPQVYTLPPSRDELTKNQVSLTCLVKGFYPSDIAVEWESNGQPENNYKTTPLVLDSDGSFFLYSKLTVDKSRWQQGNVFSCSVMHEALHNHYTQESLSLSP
chain 2: not shown

Kd (human FcγRIIb [4]): 100 nM
B8: IL6R-BP350 (antibody)
chain 1: QVQLQESGPGLVKPSETLSLTCAVSGHSISHDHAWSWVRQPPGEGLEWIGFISYSGITNYNPSLQGRVTISRDNSKNTLYLQMNSLRAEDTAVYYCARSLARTTAMDYWGEGTLVTVSSASTKGPSVFPLAPSSKSTSGGTAALGCLVKDYFPEPVTVSWNSGALTSGVHTFPAVLQSSGLYSLSSVVTVPSSSLGTQTYICNVNHKPSNTKVDKKVEPKSCDKTHTCPPCPAPDLLGDDSVFLFPPKPKDTLMISRTPEVTCVVVDVEEEDGEVKFNWYVDGVEVHNAKTKPREEQYNSTYRVVSVLTVLHQDWLNGKEYKCKVSNKALPAPIEKTISKAKGQPREPQVYTLPPSRDELTKNQVSLTCLVKGFYPSDIAVEWESNGQPENNYKTTPPVLDSDGSFFLYSKLTVDKSRWQQGNVFSCSVMHEALHNHYTQESLSLSP
chain 2: not shown

Kd (human FcγRIa [2]): 0.6 nM
B9: IL6R-BP456 (antibody)
chain 1: QVQLQESGPGLVKPSETLSLTCAVSGHSISHDHAWSWVRQPPGEGLEWIGFISYSGITNYNPSLQGRVTISRDNSKNTLYLQMNSLRAEDTAVYYCARSLARTTAMDYWGEGTLVTVSSASTKGPSVFPLAPSSKSTSGGTAALGCLVKDYFPEPVTVSWNSGALTSGVHTFPAVLQSSGLYSLSSVVTVPSSSLGTQTYICNVNHKPSNTKVDKKVEPKSCDKTHTCPPCPAPDLLGDDSVFLFPPKPKDTLMISRTPEVTCVVVDVAEEDGEVKFNWYVDGVEVHNAKTKPREEQYNSTYRVVSVLTVLHQDWLNGKEYKCKVSNKALPRPIEKTISKAKGQPREPQVYTLPPSRDELTKNQVSLTCLVKGFYPSDIAVEWESNGQPENNYKTTPMVLDSDGSFFLYSKLTVDKSRWQQGNVFSCSVMHEALHNHYTQESLSLSP
chain 2: not shown

Kd (human FcγRIIb [4]): 100 nM
B10: IL6R-BP367 (antibody)
chain 1: QVQLQESGPGLVKPSETLSLTCAVSGHSISHDHAWSWVRQPPGEGLEWIGFISYSGITNYNPSLQGRVTISRDNSKNTLYLQMNSLRAEDTAVYYCARSLARTTAMDYWGEGTLVTVSSASTKGPSVFPLAPSSKSTSGGTAALGCLVKDYFPEPVTVSWNSGALTSGVHTFPAVLQSSGLYSLSSVVTVPSSSLGTQTYICNVNHKPSNTKVDKKVEPKSCDKTHTCPPCPAPDLLGDDSVFLFPPKPKDTLMISRTPEVTCVVVDVSEDDGEVKFNWYVDGVEVHNAKTKPREEQYNSTYRVVSVLTVLHQDWLNGKEYKCKVSNKALPAPIEKTISKAKGQPREPQVYTLPPSRDELTKNQVSLTCLVKGFYPSDIAVEWESNGQPENNYKTTPPVLDSDGSFFLYSKLTVDKSRWQQGNVFSCSVMHEALHNHYTQESLSLSP
chain 2: not shown
